Experimental data as given in publication PMC10944109.
One block for each substance: values may come before it.

Legend:
[1] = molecular target: LZ-Las17(281–633), biotinylated leucine zipper dimeric form of Las17 residues 281–633 (S. cerevisiae); assay: supernatant depletion binding assay; biotinylated LZ-Las17(281–633) dimer on magnetic streptavidin beads (16 nM to 2.06 μM dimer for the WT isotherm; 0.6 μM dimer for mutants and CA fusions); 50 nM Arp2/3 complex in solution; 1x PC buffer plus 0.05% Tween-20; 70 min, room temperature; Arp2/3 complex left in the supernatant quantified by anti-Arp3 dot blot
[2] = molecular target: Monomeric Las17(281–633) (S. cerevisiae) (UniProt Q12446)
[3] = molecular target: LZ-Myo5(1146–1220), biotinylated leucine zipper dimeric form of the Myo5 CA segment (S. cerevisiae) (UniProt P03069); assay: supernatant depletion binding assay; biotinylated LZ-Myo5–CA dimer on magnetic streptavidin beads (25 nM to 1.6 μM dimer for the WT isotherm; 0.4 μM dimer for mutants); 50 nM Arp2/3 complex in solution; 1x PC buffer plus 0.05% Tween-20; 70 min, room temperature; Arp2/3 complex left in the supernatant quantified by anti-Arp3 dot blot

reduction in binding compared with the WT complex [1]: 50%
Substance: S. cerevisiae Arp2/3 complex with ARPC1(F183A, K185D) (from UniProt P47117 1-449; P32381 1-391; P38328 1-384; P53731 1-342)

reduction in binding compared with the WT complex [1]: 50%
Substance: S. cerevisiae Arp2/3 complex with Arp2(V142A, Y146A) (from UniProt P47117 1-449; P32381 1-391; P38328 1-384; P53731 1-342)

maximum polymerization rate in pyrene actin polymerization assay as percent of WT activity; 20 nM Arp2/3 complex, 3 μM 15% pyrene actin, Las17(281–633), PC buffer (% of the WT activity) [2]: 56 | reduction in binding compared with WT Arp2/3 complex [1]: 30%
Substance: S. cerevisiae Arp2/3 complex with Arp3(R371D) (from UniProt P47117 1-449; P32381 1-391; P38328 1-384; P53731 1-342)

maximum polymerization rate in pyrene actin polymerization assay as percent of WT activity; 20 nM Arp2/3 complex, 3 μM 15% pyrene actin, 1.5 μM monomeric Las17(281–633), PC buffer (% of the WT activity) [2]: 20
Substance: S. cerevisiae Arp2/3 complex with Arp3(R403D, K404D) (from UniProt P47117 1-449; P32381 1-391; P38328 1-384; P53731 1-342)

maximum polymerization rate in pyrene actin polymerization assay as percent of WT activity; 20 nM Arp2/3 complex, 3 μM 15% pyrene actin, 1.5 μM monomeric Las17(281–633), PC buffer (% of the WT activity) [2]: 17
Substance: S. cerevisiae Arp2/3 complex with Arp3(W191A, T192A) (from UniProt P47117 1-449; P32381 1-391; P38328 1-384; P53731 1-342)

percent of the complex pulled down at 0.6 μM (LZ-Las17(281–633))2 [1]: 30%
Substance: S. cerevisiae Arp2/3 complex with the CA segment of N-WASP fused to Arp2 (Arp2–CA fusion complex) (from UniProt P47117 1-449; P38328 1-384; P53731 1-342)

percent of the complex pulled down at 0.6 μM (LZ-Las17(281–633))2 [1]: 73%
Substance: S. cerevisiae Arp2/3 complex with the CA segment of N-WASP fused to Arp3 (Arp3–CA fusion complex) (from UniProt P32381 1-391; P38328 1-384; P53731 1-342)

Kd [3]: 130 nM | Kd [1]: 160 nM
Substance: WT S. cerevisiae Arp2/3 complex (ARPC2 with C-terminal tandem 12xHis and TwinStrep tags) (from UniProt P47117 1-449; P32381 1-391; P38328 1-384; P53731 1-342)
